The record followed here is patent publication US20120070451.

The test system of this data set is Cavβ2 (Ca2+ beta2 channel accessory subunit), endogenous, mouse heart.

For recombinant active Akt, the “in vitro kinase assay: Cavβ2-immunoprecipitates from cardiac homogenates incubated with recombinant active Akt and [γ-32]ATP” value is “A band corresponding to phosphorylated Cavβ2 was detected only in the presence of the kinase”.
